Measurements as given in patent US11733236B2, “Flattop (fltp) is a novel biomarker for beta cell maturation” (Helmholtz Zentrum München—Deutsches Forschungszentrum Für …, priority 2014, dated 2023).

What was measured:
β cells = experiment: multiple low-dose streptozotocin (STZ) model; assay type: in vivo, mouse; details: Fltp ZV/+ and Fltp ZV/ZV mice, 40 mg/kg i.p. daily for 5 days, vs vehicle, up to day 16
Method: […] Blood glucose level was measured every 2 days using Freestyle Lite glucometer (Abbot Laboratory). On day 16 after the first STZ injection, GTT was carried out as described and mice were euthanized.
To further test the requirement of PCP and Fltp in the context of β cell survival and regeneration, a multiple low-dose streptozotocin (STZ) model was employed (Kolb 1987). Streptozotocin is a naturally occurring chemical that is particularly toxic to β cells. For this purpose STZ was injected on five consecutive days and blood glucose regulation was measured every 2nd day thereafter in Fltp^ZV/+ and Fltp^ZV/ZV cohorts (FIG. 5C). […] Thus, loss of Fltp and planar polarization in β cells increases the vulnerability to STZ.

[1] = test system: isolated islets of P5 WT animals; experiment: Ucn3 maturation marker staining in isolated, re-aggregated islets of P5 WT animals, Wnt5a stimulation, LSM; assay type: cell-based, mouse
Method: (§1) EndoC-β H1 human β-cell line were cultured in adherence (2D culture) as described previously (Ravassard et al. (2011)). For 3D matrigel based cultures EndoC-β H1 were cultured in Matrigel Matrix Growth Factor Reduced (BD Bioscience, Germany) diluted 1:2 in their respective medium. For analysis of WNT5a induced β-cell maturation, samples were stimulated with 400 ng/ml of WNT5a (R&D systems, Germany) for 12 h or 3 days.
Murine pancreatic islets of Langerhans were isolated from 5 day old mice. After decapitation of the animals, the pancreas was dissected and supplemented with collagenase P (1 mg/ml) in HBSS (Hanks balanced salt solution) including 10% BSA (G-solution) and incubated for 15 min at 37° C. The pancreas was washed 2× in G-solution at RT and the islets were picked under the stereomicroscope (Leica). The islets were incubated in RPMI 1640 plus 5% FCS (fetal calf serum) and 1% P/S (penicillin and streptomycin). Afterwards the islets were trypsinized with 0.05% Trypsin […] at 37° C., washed twice with PBS plus 0.3% BSA and then seeded in iBidi 8 well chambers. For immunohistochemistry the protocol mentioned above was used. Fluorescent intensity was calculated by the Leica LAS-AF (Version 2.7.3.9723) software and the graphs were plotted with Excel.

EndoC-β H1 human β-cells = experiment: NKX6.1 maturation marker expression in EndoC-β H1 cells cultured in Matrigel (3D), WNT5a stimulation, LSM immunofluorescence; assay type: cell-based
Method: as §1
Staining of EndoC-β H1 cells was performed as follows: cells were fixed for 10 min in 4% PFA at 37° C. washed 3× with PBS containing 0.2% Tween and 0.3% BSA (washing buffer) at RT, and permeabilized for 30 min on a shaker at RT. Subsequently the cells were washed again 3× with washing buffer at RT, blocked for 1 h at RT in blocking buffer (PBS including 0.02% Tween, 10% FCS, 0.2% BSA, 3% serum). Then the primary antibody was added in blocking solution and incubated over night at 4° C. The cells were washed 3× in washing buffer, incubated with the secondary antibody for 2 h at RT, washed 3× in washing buffer and embedded in Elvanol for subsequent imaging. Imaging was performed with a Leica SP5 confocal microscope according to the manufacturers guidelines. The 63× glycerol objective was used.

[2] = test system: Fltp reporter expression in β cells of cultured islets; experiment: Fltp reporter expression in isolated islets cultured in absence or presence of Wnt ligands; assay type: cell-based, mouse; details: islets of Fltp-T2A-iCre x mTmG mice cultured in absence or presence of ligand
Method: For lineage tracing studies, islet from eight-week-old Fltp^T2A-iCre-mTmG were isolated as described above. For FACS analysis islet were incubate with 0.25% Trypsin-EDTA (Invitrogen) to obtain single cell suspensions and intarcellular staining for Nkx6.1 was performed. For live imaging experiment isolated islets from Fltp^T2A-iCre-mTmG were cultured in matrigel and imaging was performed using Leica Confocal SP5 microscope.
Islets of these crossings were isolated and cultured in vitro. To establish the culture conditions, it is first tested if β cells depend on Wnt/PCP signaling to maintain Ftp reporter expression. Therefore, islets were cultured in absence or presence of ligands of the canonical Wnt/β-catenin (Wnt3a) and non-canonical Wnt/PCP pathway (Wnt5a). […] Using these culture conditions in combination with live single cell imaging will allow us to follow new born Fltp-Cre expressing mT and mG expressing cells over a time-course of two to four days.

Molecule	loss of β cells (immunohistochemistry on pancreatic sections) (β cells)	amount of maturation marker Ucn3 protein ([1]; islets of P5 WT animals treated with Wnt5a for 12 h vs non-treated, 400 ng/ml, n=3)	Ucn3 maturation marker staining ([1]; islets of P5 WT animals treated with Wnt5a for 3 days vs untreated, 400 ng/ml, n=3)	expression of maturation markers ([1]; neonatal isolated islets stimulated with Wnt5a)	expression of NKX6.1 (fluorescent intensity, NKX6.1 high vs low cells) (EndoC-β H1 human β-cells; EndoC-β H1 in Matrigel (3D) treated with WNT5a vs 3D without WNT5a, 400 ng/ml)	expression of maturation markers (EndoC-β H1 human β-cells; EndoC-β H1 stimulated with Wnt5a)	maintenance of Fltp reporter gene expression [2]
CN(N=O)C(=O)N[C@H]1C(O)O[C@H](CO)[C@@H](O)[C@@H]1O (mixture of isomers) [STZ, Streptozotocin]	gradual loss of β cells	–	–	–	–	–	–
Wnt5a: noncanonical Wnt ligand of the Wnt/PCP pathway, obtained from R&D systems (protein, UniProt P41221 62-380, looked up) Protein Wnt-5a: IIGAQPLCSQLAGLSQGQKKLCHLYQDHMQYIGEGAKTGIKECQYQFRHRRWNCSTVDNTSVFGRVMQIGSRETAFTYAVSAAGVVNAMSRACREGELSTCGCSRAARPKDLPRDWLWGGCGDNIDYGYRFAKEFVDARERERIHAKGSYESARILMNLHNNEAGRRTVYNLADVACKCHGVSGSCSLKTCWLQLADFRKVGDALKEKYDSAAAMRLNSRGKLVQVNSRFNSPTTQDLVYIDPSPDYCVRNESTGSLGTQGRLCNKTSEGMDGCELMCCGRGYDQFKTVQTERCHCKFHWCCYVKCKKCTEIVDQFVCK	–	higher amount of maturation marker Ucn3 protein	significant increase in Ucn3 maturation marker staining	increased expression of maturation markers	higher expression of NKX6.1	increased expression of maturation markers	Fltp-reporter gene expression indeed depend on Wnt/PCP
Wnt3a: ligand of the canonical Wnt/β-catenin pathway (protein, UniProt P56704 19-352, looked up) Protein Wnt-3a: SYPIWWSLAVGPQYSSLGSQPILCASIPGLVPKQLRFCRNYVEIMPSVAEGIKIGIQECQHQFRGRRWNCTTVHDSLAIFGPVLDKATRESAFVHAIASAGVAFAVTRSCAEGTAAICGCSSRHQGSPGKGWKWGGCSEDIEFGGMVSREFADARENRPDARSAMNRHNNEAGRQAIASHMHLKCKCHGLSGSCEVKTCWWSQPDFRAIGDFLKDKYDSASEMVVEKHRESRGWVETLRPRYTYFKVPTERDLVYYEASPNFCEPNPETGSFGTRDRTCNVSSHGIDGCDLLCCGRGHNARAERRREKCRCVFHWCCYVSCQECTRVYDVHTCK	–	–	–	–	–	–	not canonical Wnt signaling
